Results on five molecules are retold here after patent publication US20200369754A1 (Janssen / Centocor, published 2020).

Test [1] addresses T1, Aggregated recombinant 2N4R tau (rTau) (human, UniProt P10636 2-758, covalently labelled with pHrodo Green STP Ester).
T1 construct: Full-length huTau441 expressed in E. coli, in aggregated form; also called rTau aggregates; tau aggregates
In words: uptake of pHrodo-labelled rTau immunocomplexes by BV2 cells, flow cytometry. As for the experimental part: In each experiment a mouse IgG1 isotype control was included together with cells incubate with only aggregated rTau.
Immunocomplexes were incubated over night at 4° C. and the day after applied to BV2 cells for 2 hours at 37° C. with 5% CO2. After incubation cells were harvested with 0.25% trypsin-EDTA for 20 min thus simultaneously removing Tau bound to the extracellular membrane, centrifuged at 400 rcf to remove medium removed, washed twice with PBS and resuspended in flow cytometry buffer (PBS 1× plus 0.5% BSA and 2 mM EDTA). Cells were analyzed with a Canto II flow cytometer (BD) gating for live single cell population, as identified by forward and side scatter profiles. Each experiment was conducted in duplicate.

For test [2], the target named is T2, Tau peptide A6940 (human, biotin (bound via biotin to a streptavidin biosensor in the Octet assay; position of the biotin not stated)).
T2 construct: Biotinylated in the Octet assay; also called cognate Tau peptide A6940
T2 peptide: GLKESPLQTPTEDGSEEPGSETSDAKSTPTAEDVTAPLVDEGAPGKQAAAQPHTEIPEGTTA
In words: ITC, tau peptide 20 uM titrated with IgG 200 uM, PBS pH 7.4, one set of sites model. How it is done:
Affinities of the novel antibodies were determined using a Microcal Auto-iTC200 isothermal titration calorimeter (Malvern). […] Data was fitted according to a one set of sites model using Microcal PEAQ-ITC Analysis Software (Malvern).
The continuous lines represent the fit of the data to a “one set of binding sites” model.
On the technique in general: ITC needs no label: the signal is the heat of the interaction.

T1 sequence (P10636 other isoform, or with tags, fused parts or gaps limits assumed): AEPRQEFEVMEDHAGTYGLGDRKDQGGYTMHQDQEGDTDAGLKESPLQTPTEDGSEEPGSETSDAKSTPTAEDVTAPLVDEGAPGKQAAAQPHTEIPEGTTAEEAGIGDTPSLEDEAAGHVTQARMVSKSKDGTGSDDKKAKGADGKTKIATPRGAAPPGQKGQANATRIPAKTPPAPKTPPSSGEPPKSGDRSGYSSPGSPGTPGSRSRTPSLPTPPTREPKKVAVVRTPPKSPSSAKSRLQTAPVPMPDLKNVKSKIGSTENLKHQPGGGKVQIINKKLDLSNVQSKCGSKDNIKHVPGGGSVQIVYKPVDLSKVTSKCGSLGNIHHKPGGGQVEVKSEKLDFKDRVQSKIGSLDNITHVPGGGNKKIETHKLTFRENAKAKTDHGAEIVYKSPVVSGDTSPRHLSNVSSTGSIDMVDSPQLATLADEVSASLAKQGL

B1: CBTAU-28.1 (I50M[VH];Y52W[VH];S103W[VH];S32R[VL];E35K[VL]) (antibody, V domains shown)
VH: QVQLQQSGAEVKKPGESLKISCEASGYSFTNYWIGWVRQMPGKGLEWMGMIWPGDSDTRYSPPFQGQVTITADRSITTAYLEWSSLKASDTAMYYCARVGRPWKGGWFDPWGQGTLVTVSS
VL: DIQMTQSPDSLAVSLGERATINCESSQTLLYRSNKKNYLAWYQQKPGQPPKLLISWASTPESGVPDRFSGSGSGTSFTLTISSLQAEDVAVYYCQQYYNSPYTFGQGTRLEIK
B1: in test [1], the binding result is “binds”. In addition, in test [2], the dissociation constant Kd – broadly, the free concentration of one partner at which half of the binding sites on the other are occupied at equilibrium, for simple one-to-one binding – turned out to be 67 nM.

B2: CBTAU-28.1 (I50M[VH];Y52W[VH];S103F[VH];S32R[VL];E35K[VL]) (antibody, V domains shown)
VH: QVQLQQSGAEVKKPGESLKISCEASGYSFTNYWIGWVRQMPGKGLEWMGMIWPGDSDTRYSPPFQGQVTITADRSITTAYLEWSSLKASDTAMYYCARVGRPFKGGWFDPWGQGTLVTVSS
VL: DIQMTQSPDSLAVSLGERATINCESSQTLLYRSNKKNYLAWYQQKPGQPPKLLISWASTPESGVPDRFSGSGSGTSFTLTISSLQAEDVAVYYCQQYYNSPYTFGQGTRLEIK
Turning to B2, the binding result in test [1] is “binds”. For the same molecule, binding in test [2] was characterised by a dissociation constant (Kd) of 63 nM.

B3: CBTAU-28.1 (I50M[VH];Y52W[VH];S103W[VH];Y31W[VL];N99H[VL]) (antibody, V domains shown)
VH: QVQLQQSGAEVKKPGESLKISCEASGYSFTNYWIGWVRQMPGKGLEWMGMIWPGDSDTRYSPPFQGQVTITADRSITTAYLEWSSLKASDTAMYYCARVGRPWKGGWFDPWGQGTLVTVSS
VL: DIQMTQSPDSLAVSLGERATINCESSQTLLWSSNEKNYLAWYQQKPGQPPKLLISWASTPESGVPDRFSGSGSGTSFTLTISSLQAEDVAVYYCQQYYHSPYTFGQGTRLEIK
For the molecule B3, the binding result in test [1] was “binds”. The molecule further returned a dissociation constant (Kd) in test [2] of 57 nM.

B4: CBTAU-28.1 (S32R[VL];E35K[VL]) (antibody, V domains shown)
VH: QVQLQQSGAEVKKPGESLKISCEASGYSFTNYWIGWVRQMPGKGLEWMGIIYPGDSDTRYSPPFQGQVTITADRSITTAYLEWSSLKASDTAMYYCARVGRPSKGGWFDPWGQGTLVTVSS
VL: DIQMTQSPDSLAVSLGERATINCESSQTLLYRSNKKNYLAWYQQKPGQPPKLLISWASTPESGVPDRFSGSGSGTSFTLTISSLQAEDVAVYYCQQYYNSPYTFGQGTRLEIK
For the molecule B4, the binding result in test [1] was “binds”.

B5: CBTAU-28.1 (I50M[VH];Y52W[VH];S103F[VH];Y31W[VL];N99H[VL]) (antibody, V domains shown)
VH: QVQLQQSGAEVKKPGESLKISCEASGYSFTNYWIGWVRQMPGKGLEWMGMIWPGDSDTRYSPPFQGQVTITADRSITTAYLEWSSLKASDTAMYYCARVGRPFKGGWFDPWGQGTLVTVSS
VL: DIQMTQSPDSLAVSLGERATINCESSQTLLWSSNEKNYLAWYQQKPGQPPKLLISWASTPESGVPDRFSGSGSGTSFTLTISSLQAEDVAVYYCQQYYHSPYTFGQGTRLEIK
On to B5, for which the binding result in test [1] was “binds”. Further, in test [2], the Kd was found to be 45 nM.
